According to US20260001933A1 (PETMEDIX, published 2026):
Positions count from the first letter of the chain named. Where two headings read alike, the source gives them in different places.

T1: Canine FcRn-B2M recombinant protein (Immunitrack) (canine, UniProt A0A8I3PFR8 25-296; P19341 1-42)
T1 chain 1: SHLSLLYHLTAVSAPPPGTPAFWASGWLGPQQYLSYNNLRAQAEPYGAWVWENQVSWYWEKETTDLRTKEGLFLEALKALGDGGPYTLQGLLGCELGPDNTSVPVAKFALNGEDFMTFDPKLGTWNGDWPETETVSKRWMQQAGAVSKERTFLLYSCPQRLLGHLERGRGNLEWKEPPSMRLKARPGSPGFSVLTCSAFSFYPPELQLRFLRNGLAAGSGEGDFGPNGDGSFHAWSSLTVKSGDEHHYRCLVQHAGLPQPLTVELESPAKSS
T1 chain 2: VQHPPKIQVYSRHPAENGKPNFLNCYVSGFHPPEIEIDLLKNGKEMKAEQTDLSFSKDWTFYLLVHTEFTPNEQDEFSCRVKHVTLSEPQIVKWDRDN

T2: Murine FcRn-B2M recombinant protein (Immunitrack) (murine, UniProt Q61559 22-297; P01887 21-119, limits assumed)
T2 construct: Bought reagent; also called murine neonatal receptor
T2 sequence (looked up): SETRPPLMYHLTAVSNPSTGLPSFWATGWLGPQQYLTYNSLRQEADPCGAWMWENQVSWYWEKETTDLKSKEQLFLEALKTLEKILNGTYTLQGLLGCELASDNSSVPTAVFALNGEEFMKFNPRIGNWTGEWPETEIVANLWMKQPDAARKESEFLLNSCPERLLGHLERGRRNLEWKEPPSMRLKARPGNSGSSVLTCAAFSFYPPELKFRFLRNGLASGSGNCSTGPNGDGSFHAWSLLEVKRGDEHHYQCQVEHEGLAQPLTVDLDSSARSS
T2 sequence (b2m, looked up): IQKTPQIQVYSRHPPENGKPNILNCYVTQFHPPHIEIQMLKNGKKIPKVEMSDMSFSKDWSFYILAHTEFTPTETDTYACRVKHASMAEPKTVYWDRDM

B1: Bedinvetmab (antibody, V domains shown)
VH: EVQLVESGGDLVKPGGSLRLSCVASGFTFSSHGMHWVRQSPGKGLQWVAVINSGGSSTYYTDAVKGRFTISRDNAKNTVYLQMNSLRAEDTAMYYCAKESVGGWEQLVGPHFDYWGQGTLVIVSS
VL: QSVLTQPTSVSGSLGQRVTISCSGSTNNIGILGASWYQLFPGKAPKLLVYGNGNRPSGVPDRFSGADSGDSVTLTITGLQAEDEADYYCQSFDTTLGAHVFGGGTHLTVL
B2: PetML119 (canine p75NTR ECD-canine IgGB wt Fc protein fusion) (Fc fusion)
chain: KEACPTGLYTHSGECCKACNLGEGVAQPCGANQTVCEPCLDSVTFSDVVSATEPCKPCTECVGLQSMSAPCVEADDAVCRCAYGYYQDETTGRCEACRVCEAGSGLVFSCQDRQNTVCEECPDGTYSDEANHVDPCLPCTVCEDTERQLRECTRWADAECEEIPGGGGRENGRVPRPPDCPKCPAPEMLGGPSVFIFPPKPKDTLLIARTPEVTCVVVDLDPEDPEVQISWFVDGKQMQTAKTQPREEQFNGTYRVVSVLPIGHQDWLKGKQFTCKVNNKALPSPIERTISKARGQAHQPSVYVLPPSREELSKNTVSLTCLIKDFFPPDIDVEWQSNGQQEPESKYRTTPPQLDEDGSYFLYSKLSVDKSRWQRGDTFICAVMHEALHNHYTQKSLSHSPGK
notes: Glycosylated, made in CHO cells; also called Fc-Bwt; Sample 1
B3: PetML122 (canine p75NTR ECD-canine Fc YTE protein fusion) (Fc fusion)
chain: B2 chain with L206Y, A208T, T210E
notes: also called Fc-B-YTE; Sample 2

Experiments:
[1] = biological target: T3, Human nerve growth factor (NGF) (human, UniProt P01138 122-241); assay: cell-based or functional assay
[2] = biological target: T3, Human nerve growth factor (NGF); assay: SPR, kinetic fit (caption of panel 7d: hNGF; BedinvetmAb; 1:1 binding); the set-up for Bedinvetmab is not described in the text; column head 'Kinetics affinity KD (nM)'
[3] = biological target: T1, Canine FcRn-B2M recombinant protein …; assay: SPR (Biacore 8K), canine FcRn-B2M amine-coupled on CM5, running buffer pH 6, fusion protein as analyte; steady state affinity
[4] = biological target: T2, Murine FcRn-B2M recombinant protein …; assay: SPR (Biacore 8K), murine FcRn-B2M amine-coupled on CM5, running buffer pH 6, fusion protein as analyte; steady state affinity
[5] = biological target: T4, Rat nerve growth factor (NGF) (rat, UniProt P25427 122-241); assay: SPR (Biacore 8K), PetML119 captured on Protein A chip, rat NGF as analyte, multi-cycle kinetics; column head 'Kinetics affinity KD (nM)'
T4 construct: Bought reagent; also called rat NGF

[6] = biological target: T3, Human nerve growth factor (NGF); assay: SPR (Biacore 8K), PetML119 captured on Protein A chip, human NGF as analyte, multi-cycle kinetics; column head 'Kinetics affinity KD (nM)'
[7] = biological target: T5, Protein A (Sensor Chip Protein A, Cytiva) (UniProt P38507 212-269); assay: SPR (Biacore 8K), Sensor Chip Protein A, fusion protein produced in CHO-s injected over the chip, 1:1 binding kinetic fit; column head 'Kinetics affinity KD (nM)'
T5 construct: Commercial chip ligand; It may be a recombinant variant of staphylococcal protein A

[8] = biological target: T5, Protein A (Sensor Chip Protein A, …); assay: SPR (Biacore 8K), Sensor Chip Protein A, fusion protein produced in CHOZN injected over the chip, 1:1 binding kinetic fit; column head 'Kinetics affinity KD (nM)'
[9] = biological target: T1, Canine FcRn-B2M recombinant protein …; assay: SPR (Biacore 8K), canine FcRn-B2M amine-coupled on CM5, running buffer pH 6, fusion protein as analyte; steady state affinity
[10] = biological target: T2, Murine FcRn-B2M recombinant protein …; assay: SPR (Biacore 8K), murine FcRn-B2M amine-coupled on CM5, running buffer pH 6, fusion protein as analyte; steady state affinity; remark: listed apart in the source

Row | Binder | IC50 (nM), inhibition of NGF-dependent TF-1 cell proliferation [1] | Kd [2] | Kd [3] | Kd [4] | Kd [5] | Kd [6] | Kd [7] | Kd [8] | Kd [9] | Kd [10]
1 | B1 | 1.65 nM | 0.073 nM | – | – | – | – | – | – | – | –
2 | B2 | 15.2 nM | – | 6000 nM | 2000 nM | 0.12 nM | 0.12 nM | 2.8 nM | 1.3 nM | – | –
3 | B3 | – | – | – | – | – | – | – | 15 nM | 400 nM | 90 nM
